According to US20260167699A1 (Chugai, published 2026):
Positions count from the first letter of the chain named.

T1: FcγRIIa(R) extracellular domain, His-tagged (human, UniProt P12318 34-217)
T1 construct: extracellular domain; also called 2aR
T1 sequence: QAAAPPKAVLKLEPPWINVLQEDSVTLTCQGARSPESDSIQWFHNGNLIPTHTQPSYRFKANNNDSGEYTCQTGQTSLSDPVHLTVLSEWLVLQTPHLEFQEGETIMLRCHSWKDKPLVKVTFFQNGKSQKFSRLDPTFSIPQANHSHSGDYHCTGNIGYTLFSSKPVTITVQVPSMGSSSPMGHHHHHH

T2: FcγRIIa(H) extracellular domain, His-tagged (human, UniProt P12318 34-217)
T2 construct: extracellular domain; also called 2aH
T2 sequence: T1 sequence with R134H

T3: FcγRIIb extracellular domain, His-tagged (human, UniProt P31994 43-217)
T3 construct: extracellular domain; also called 2b
T3 sequence: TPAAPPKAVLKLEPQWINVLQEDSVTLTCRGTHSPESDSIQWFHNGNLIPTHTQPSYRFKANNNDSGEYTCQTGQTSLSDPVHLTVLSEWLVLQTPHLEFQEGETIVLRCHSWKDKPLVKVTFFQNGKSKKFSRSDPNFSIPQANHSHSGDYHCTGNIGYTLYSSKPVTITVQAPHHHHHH

B1: GpH7-A5/GpH7-B3 variant H268_08L/GpL16-k0 (antibody, human IgG1, kappa)
heavy 1: not shown
heavy 2: not shown
light: DIVMTQSPLSLPVTPGEPASISCQASESLVHSNRNTYLHWYLQKPGQSPQLLIYKVSNRFSGVPDRFSGSGSGTDFTLKISRVEAEDVGVYYCSQNTHVPPTFGQGTKVEIERTVAAPSVFIFPPSDEQLKSGTASVVCLLNNFYPREAKVQWKVDNALQSGNSQESVTEQDSKDSTYSLSSTLTLSKADYEKHKVYACEVTHQGLSSPVTKSFNRGEC
B2: GpH7-A5/GpH7-B3 variant H268_10E/GpL16-k0 (antibody, human IgG1, kappa)
heavy 1: not shown
heavy 2: not shown
light: B1 light
B3: GpH7-A5/GpH7-B3 variant H268_11K/GpL16-k0 (antibody, human IgG1, kappa)
heavy 1: not shown
heavy 2: not shown
light: B1 light
B4: GpH7-A5/GpH7-B3 variant H268_12R/GpL16-k0 (antibody, human IgG1, kappa)
heavy 1: not shown
heavy 2: not shown
light: B1 light
B5: GpH7-A5/GpH7-B3 variant L234_01G/GpL16-k0 (antibody, human IgG1, kappa)
heavy 1: not shown
heavy 2: not shown
light: B1 light
B6: GpH7-A5/GpH7-B3 variant H268_15Y/GpL16-k0 (antibody, human IgG1, kappa)
heavy 1: not shown
heavy 2: not shown
light: B1 light
B7: GpH7-A5/GpH7-B3 variant H268_09D/GpL16-k0 (antibody, human IgG1, kappa)
heavy 1: not shown
heavy 2: not shown
light: B1 light
B8: GpH7-A5/GpH7-B3 variant H268_20W/GpL16-k0 (antibody, human IgG1, kappa)
heavy 1: not shown
heavy 2: not shown
light: B1 light
B9: GpH7-A5/GpH7-B3 variant H268_13S/GpL16-k0 (antibody, human IgG1, kappa)
heavy 1: not shown
heavy 2: not shown
light: B1 light
B10: GpH7-A5/GpH7-B3 variant H268_19Q/GpL16-k0 (antibody, human IgG1, kappa)
heavy 1: not shown
heavy 2: not shown
light: B1 light
B11: GpH7-A5/GpH7-B3 variant H268_18N/GpL16-k0 (antibody, human IgG1, kappa)
heavy 1: not shown
heavy 2: not shown
light: B1 light

target: T4, FcγRIa extracellular domain, His-tagged (human, UniProt P12314 16-292); assay: SPR, vs GpH7-A5/GpH7-B3/GpL16-k0 =100
T4 construct: extracellular domain; also called 1a
T4 sequence (P12314 other isoform, or with tags, fused parts or gaps): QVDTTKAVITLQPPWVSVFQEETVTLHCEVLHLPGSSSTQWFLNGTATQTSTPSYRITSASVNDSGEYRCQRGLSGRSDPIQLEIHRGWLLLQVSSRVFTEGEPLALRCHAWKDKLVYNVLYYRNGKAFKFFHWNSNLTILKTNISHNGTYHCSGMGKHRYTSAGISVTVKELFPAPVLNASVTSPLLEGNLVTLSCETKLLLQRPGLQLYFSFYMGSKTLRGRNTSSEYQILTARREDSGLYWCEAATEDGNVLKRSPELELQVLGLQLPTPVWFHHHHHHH

Binder	He/Con 1a
B1	104 % of control
B2	107 % of control
B3	102 % of control
B4	103 % of control
B5	99.2 % of control
B6	104 % of control
B7	106 % of control
B8	103 % of control
B9	106 % of control
B10	104 % of control
B11	104 % of control

target: T1, FcγRIIa(R) extracellular domain, …; assay: SPR, vs GpH7-A5/GpH7-B3/GpL16-k0 =100

Binder	He/Con 2aR
B1	91.4 % of control
B2	159 % of control
B3	108 % of control
B4	113 % of control
B5	72.4 % of control
B6	118 % of control
B7	161 % of control
B8	122 % of control
B9	137 % of control
B10	128 % of control
B11	138 % of control

target: T2, FcγRIIa(H) extracellular domain, …; assay: SPR, vs GpH7-A5/GpH7-B3/GpL16-k0 =100

Binder	He/Con 2aH
B1	85.9 % of control
B2	126 % of control
B3	89.8 % of control
B4	90.9 % of control
B5	84.1 % of control
B6	113 % of control
B7	134 % of control
B8	96.9 % of control
B9	114 % of control
B10	104 % of control
B11	113 % of control

target: T3, FcγRIIb extracellular domain, His-tagged; assay: SPR, vs GpH7-A5/GpH7-B3/GpL16-k0 =100

Binder	He/Con 2b
B1	71.2 % of control
B2	242 % of control
B3	87.2 % of control
B4	94.3 % of control
B5	57.8 % of control
B6	112 % of control
B7	251 % of control
B8	117 % of control
B9	168 % of control
B10	140 % of control
B11	164 % of control

target: T5, FcγRIIIa extracellular domain, His-tagged (human, UniProt P08637 17-208); assay: SPR, vs GpH7-A5/GpH7-B3/GpL16-k0 =100
T5 construct: extracellular domain; also called 3a
T5 sequence (P08637 other isoform, or with tags, fused parts or gaps): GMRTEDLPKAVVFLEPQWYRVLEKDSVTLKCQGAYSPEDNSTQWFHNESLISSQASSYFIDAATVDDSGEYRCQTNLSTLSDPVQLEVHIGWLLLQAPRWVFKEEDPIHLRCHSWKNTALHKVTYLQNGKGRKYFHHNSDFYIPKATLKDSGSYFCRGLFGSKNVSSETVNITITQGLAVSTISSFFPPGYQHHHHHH

Binder	He/Con 3a
B1	75.9 % of control
B2	184 % of control
B3	81.6 % of control
B4	76 % of control
B5	55.8 % of control
B6	96.5 % of control
B7	195 % of control
B8	82 % of control
B9	121 % of control
B10	113 % of control
B11	103 % of control
